Laboratory results published in the supplement of paper PMC7877785.
± gives the uncertainty stated by the source.

Assay: self-splicing fitness, log relative to wild type (ln ratio); higher = more splicing; Tetrahymena group I intron in knt gene, E. coli kanamycin selection, DiMSum; sequences stand for … in CUCUCU…GGAGGGAAAAGUUAUCAGGCAUGCACCUGGUAGCUAGUCUUUAAACCAAUAGAUUGCAUCGGUUUAAAAGGCAAGACCGUCAAAUUGCGGGAAAGGGGUCAACAGCCGUUCAGUACCAAGUCUCAGGGGAAACUUUGAGAUGGCCUUGCAAAGGGUAUGGUAAUAAGCUGACGGACAUGGUCCUAACCACGCAGCCAAGUCCUAAGUCAACAGAUCUUCUGUUGAUAUGGAUGCAGUUCACAGACUAAAUGUCGGUCGGGGAAGAUGUAUUCUUCUCAUAAGAUAUAGUCGGACCUCUCCUUAAUGGGAGCUAGCGGAUGAAGUGAUGCAACACUGGAGCCGCUGGGAACUAAUUUGUAUGCGAAAGUAUAUUGAUUAGUUUUGGAGUACUCGUGGUCG
Summary of the method: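 Pooled colonies went to amplicon sequencing on an Illumina HiSeq 2500 after six replicate transformations. The plates were LB agar with 100 μg/mL carbenicillin, 50 μM IPTG and 0.2% rhamnose, with or without 25 μg/mL kanamycin, incubated overnight at 37°C or 30°C. The E. coli BL21(DE3) library had all eight P1ex-region intron nucleotides randomised, the intron placed in the knt kanamycin-resistance gene on pET-22b(+). DiMSum fitness is the error-weighted combination of replicate fold changes, kanamycin against none, normalised to wild type.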

Row | Sequence | self-splicing fitness (ln) (30 °C) | self-splicing fitness (ln) (37 °C)
1 | UUGUAGCAAUAUUACGACGG | -0.599 ± 0.16 | -1.63 ± 0.17
2 | GACGAGCAAUAUUACGGAAU | -3.93 ± 0.28 | -0.331 ± 0.16
3 | AGAAAGCAAUAUUACGUGAC | -2.53 ± 0.32 | -1.65 ± 0.24
4 | AGUUAGCAAUAUUACGGGAG | -4.34 ± 0.39 | -1.65 ± 0.22
5 | GUCUAGCAAUAUUACGGAUU | -1.75 ± 0.089 | -0.0906 ± 0.085
6 | UAGGAGCAAUAUUACGUAAA | -2.09 ± 0.16 | -1.49 ± 0.15
7 | UUAGAGCAAUAUUACGUUGU | -4.16 ± 0.31 | -2.4 ± 0.19
8 | CCACAGCAAUAUUACGCAAG | -1.34 ± 0.064 | -0.406 ± 0.072
9 | AAUAAGCAAUAUUACGGCAU | 0.0296 ± 0.085 | -0.0272 ± 0.097
10 | GUCAAGCAAUAUUACGUGCA | -1.58 ± 0.11 | -0.243 ± 0.1
11 | GAAGAGCAAUAUUACGAAAG | -4.13 ± 0.31 | -2.41 ± 0.18
12 | AUAUAGCAAUAUUACGUUGG | -4.08 ± 0.42 | -2.04 ± 0.26
13 | AGCAAGCAAUAUUACGGAUU | -1.94 ± 0.07 | -0.407 ± 0.084
14 | GAACAGCAAUAUUACGAGUC | -2.08 ± 0.09 | -1.45 ± 0.094
15 | GAAAAGCAAUAUUACGCGUU | -2.98 ± 0.13 | -1.18 ± 0.12
16 | UAUCAGCAAUAUUACGUGGU | -3.97 ± 0.2 | -0.774 ± 0.13
17 | GAUCAGCAAUAUUACGGAGG | -3.86 ± 0.24 | -1.82 ± 0.15
18 | UGGUAGCAAUAUUACGACUA | -0.227 ± 0.16 | -0.296 ± 0.2
19 | UGCUAGCAAUAUUACGAAAU | -3.79 ± 0.4 | -1.67 ± 0.36

Row | Sequence | self-splicing fitness (ln) (30 °C) | self-splicing fitness (ln) (37 °C)
20 | AACUAGCAAUAUUACGUCAU | -2.91 ± 0.13 | -1.21 ± 0.12
21 | CGACAGCAAUAUUACGAAGA | -2.29 ± 0.17 | -2.09 ± 0.16
22 | UUGAAGCAAUAUUACGGACG | -0.0419 ± 0.12 | 0.902 ± 0.15
23 | CGAGAGCAAUAUUACGUUUC | -2.76 ± 0.25 | -2.59 ± 0.27
24 | UCCCAGCAAUAUUACGCCCA | -1.5 ± 0.18 | -0.396 ± 0.14
25 | AGAAAGCAAUAUUACGACGG | -2.82 ± 0.24 | -0.965 ± 0.29
26 | ACUGAGCAAUAUUACGGAUU | -3.91 ± 0.27 | -1.59 ± 0.16
27 | CCUUAGCAAUAUUACGAAUA | -2.52 ± 0.27 | -2.21 ± 0.5
28 | AUCCAGCAAUAUUACGGGGC | -2.89 ± 0.14 | -2.82 ± 0.26
29 | GAGUAGCAAUAUUACGCCUA | -1.21 ± 0.1 | -0.374 ± 0.11
30 | UGUCAGCAAUAUUACGCGUU | -1.16 ± 0.072 | -0.631 ± 0.083
31 | CAAUAGCAAUAUUACGUCGA | -2.82 ± 0.21 | -2.96 ± 0.28
32 | AGCGAGCAAUAUUACGUCGA | -2.82 ± 0.27 | -2.3 ± 0.28
33 | UGUCAGCAAUAUUACGCUGG | -4.05 ± 0.39 | -2.19 ± 0.34
34 | GCGGAGCAAUAUUACGAGCG | -1.01 ± 0.17 | 0.152 ± 0.35
35 | GCGGAGCAAUAUUACGGUGU | -3.36 ± 0.23 | -3.11 ± 0.35
36 | GCCUAGCAAUAUUACGUAAG | -1.83 ± 0.088 | -0.757 ± 0.11
37 | UACUAGCAAUAUUACGGCAC | -2.77 ± 0.19 | -1.73 ± 0.2
